Source: publication PMC3985956 (Biochemistry, 2014)

Target: the molecule itself
Test: electron cryotomography with subvolume averaging

B1: CheA, full length, purified, for reconstitution with Tsr membranes (enzyme)
chain: MSMDISDFYQTFFDEADELLADMEQHLLVLQPEAPDAEQLNAIFRAAHSIKGGAGTFGFSVLQETTHLMENLLDEARRGEMQLNTDIINLFLETKDIMQEQLDAYKQSQEPDAASFDYICQALRQLALEAKGETPSAVTRLSVVAKSEPQDEQSRSQSPRRIILSRLKAGEVDLLEEELGHLTTLTDVVKGADSLSAILPGDIAEDDITAVLCFVIEADQITFETVEVSPKISTPPVLKLAAEQAPTGRVEREKTTRSNESTSIRVAVEKVDQLINLVGELVITQSMLAQRSSELDPVNHGDLITSMGQLQRNARDLQESVMSIRMMPMEYVFSRYPRLVRDLAGKLGKQVELTLVGSSTELDKSLIERIIDPLTHLVRNSLDHGIELPEKRLAAGKNSVGNLILSAEHQGGNICIEVTDDGAGLNRERILAKAASQGLTVSENMSDDEVAMLIFAPGFSTAEQVTDVSGRGVGMDVVKRNIQKMGGHVEIQSKQGTGTTIRILLPLTLAILDGMSVRVADEVFILPLNAVMESLQPREADLHPLAGGERVLEVRGEYLPIVELWKVFNVAGAKTEATQGIVVILQSGGRRYALLVDQLIGQHQVVVKNLESNYRKVPGISAATILGDGSVALIVDVSALQAINREQRMANTAA
binding result: binds
